Results on one protein are retold here after paper PMC12193089, “Genome-Wide Identification, Plasma Membrane Localization, and Functional Validation of the SUT Gene Family in Yam (Dioscorea cayennensis subsp. rotundata)” (International Journal of Molecular Sciences, 2025).

Substrate in this data set: OC[C@H]1O[C@@](CO)(O[C@H]2O[C@H](CO)[C@@H](O)[C@H](O)[C@H]2O)[C@@H](O)[C@@H]1O
Nature of the data set: cells, lysate or membranes. It counts as cell-based, Dioscorea cayenensis. The note with it: PBS pH 5.5, 30 °C, labelled compound, methods print a final sucrose concentration of 100 mM, at odds with a μM Km.

B1: DrSUT1 (Dioscorea cayenensis subsp. rotundata) (protein)
chain: MDAVSIRVPYRNLKEAELELEMGHLNGDPSGEIHDLGSRPSGGLPPSFPSASPSSPDEYGSSDASHRSQPRSSMKTLVLSCIVAAGVQFGWALQLSLLTPYIQTLGIEHAFSSFIWLCGPITGFIVQPCVGIWSDKCTLKLGRRRPFILAGSLMISFAVILIGFAADIGYLLGDTDQDCRSYKGPRWRAAAIFVIGFWMLDLANNTVQGPARALLADLSGPDQCNSANAIFCSWMALGNILGFSSGANGNWHRWFPFLTTKACCEACGNLKAAFLVAVIFLMFCTFVTLYFAKEVPLEAKPTQQFSDGAPLLNDKQQHGHRGSPTNSPKLENGEKLSVDLMADKASSRNPSNFDRNAKNDEMEALSDGPGAVLVKLLTSLRHLPPGMYSVLLVMALTWSSWFPFFLFDTDWMGREVYRGDPSGTESEIGSYQKGVRDGAFGLLLNSVVLLVASFLIDPICRRMGARMVWAMSNFIVFICMAATTIISLWSINEHLTGIQHVVGANKAVRVGALVIFSLLGFPLAITYSVPFSVTAELTADSGGGQGLATGVLNLAIVIPQMVVALGAGPWDALFGGGNIPAFALASAFALAASFLAFKRLPTLSGSYSSVGFHGFG
notes: no tag told
A word on the Km: it is the concentration of substrate that gives half-maximal velocity. As for B1, the Km was 76.69 µM.
